Measurements taken from patent US20200062856A1 (XDCEXPLORER SHANGHAI, published 2020).
Where a chain is given by its changes, count along the chain named.

T1: human TPBG protein, full-length, on the cell surface (human, UniProt Q13641 32-420)
T1 sequence (looked up): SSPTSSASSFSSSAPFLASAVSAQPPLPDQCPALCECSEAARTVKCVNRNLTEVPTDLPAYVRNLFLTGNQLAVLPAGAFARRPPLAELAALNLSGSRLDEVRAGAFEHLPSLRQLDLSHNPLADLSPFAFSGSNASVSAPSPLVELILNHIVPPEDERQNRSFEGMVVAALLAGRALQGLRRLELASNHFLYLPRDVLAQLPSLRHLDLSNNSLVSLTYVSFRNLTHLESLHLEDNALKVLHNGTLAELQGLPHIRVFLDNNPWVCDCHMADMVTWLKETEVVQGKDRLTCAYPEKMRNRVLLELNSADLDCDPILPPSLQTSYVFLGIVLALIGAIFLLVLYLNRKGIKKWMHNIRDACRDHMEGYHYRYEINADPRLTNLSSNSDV

T2: human TPBG antigen immobilized on a CM5 chip (human, UniProt Q13641 32-355, limits assumed)
T2 sequence (looked up): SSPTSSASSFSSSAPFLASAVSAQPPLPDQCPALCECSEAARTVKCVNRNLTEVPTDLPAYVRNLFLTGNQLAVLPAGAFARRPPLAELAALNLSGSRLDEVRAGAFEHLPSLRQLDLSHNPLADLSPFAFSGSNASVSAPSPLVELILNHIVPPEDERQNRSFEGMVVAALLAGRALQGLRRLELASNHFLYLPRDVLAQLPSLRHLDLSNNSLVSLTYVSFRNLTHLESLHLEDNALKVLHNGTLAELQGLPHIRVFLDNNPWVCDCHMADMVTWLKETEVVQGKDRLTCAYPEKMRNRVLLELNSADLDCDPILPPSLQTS

T3: mouse TPBG protein, full-length, on the cell surface (mouse, UniProt Q9Z0L0 32-426)
T3 construct: whole, on cells; also called mTPBG; CHOk1-mTPBG
T3 sequence (looked up): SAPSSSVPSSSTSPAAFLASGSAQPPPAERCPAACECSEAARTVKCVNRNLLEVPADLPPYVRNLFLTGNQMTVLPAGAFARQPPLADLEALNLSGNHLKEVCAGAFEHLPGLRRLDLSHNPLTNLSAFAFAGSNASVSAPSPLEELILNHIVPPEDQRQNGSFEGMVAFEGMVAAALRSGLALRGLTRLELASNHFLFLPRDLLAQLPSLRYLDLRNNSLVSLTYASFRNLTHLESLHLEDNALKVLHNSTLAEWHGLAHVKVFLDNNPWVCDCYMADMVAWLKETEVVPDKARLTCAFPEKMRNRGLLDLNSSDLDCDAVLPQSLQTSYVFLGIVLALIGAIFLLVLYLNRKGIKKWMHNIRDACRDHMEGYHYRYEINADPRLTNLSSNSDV

T4: cynomolgus TPBG protein, full-length, on the cell surface (cynomolgus, UniProt Q4R8Y9 35-420)
T4 construct: whole, on cells; also called cTPBG; CHOk1-cTPBG
T4 sequence (looked up): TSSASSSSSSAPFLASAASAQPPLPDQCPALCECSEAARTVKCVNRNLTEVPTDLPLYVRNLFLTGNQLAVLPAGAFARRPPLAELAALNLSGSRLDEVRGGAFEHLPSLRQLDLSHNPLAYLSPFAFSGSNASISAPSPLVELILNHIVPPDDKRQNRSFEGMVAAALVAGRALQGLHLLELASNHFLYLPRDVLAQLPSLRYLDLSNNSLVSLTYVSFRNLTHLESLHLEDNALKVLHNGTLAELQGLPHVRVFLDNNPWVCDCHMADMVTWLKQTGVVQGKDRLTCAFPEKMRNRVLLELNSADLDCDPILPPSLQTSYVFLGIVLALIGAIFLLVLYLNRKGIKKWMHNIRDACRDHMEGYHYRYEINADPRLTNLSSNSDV

T5: human TPBG-hFc protein (human, UniProt Q13641 32-355)
T5 construct: range 32-355; Expressed in HEK293 cells, purified on protein A; also called immunogen A; hFc tagged TPBG protein; not shown: human IgG Fc fragment of the pCpC vector
T5 sequence (looked up): T2 sequence (looked up)

B1: Humanized Antibody 12B12-12-MMAF (antibody, V domains shown)
VH: EVQLVESGGGLVQPGGSLRLSCAASGFTFSNFGMHWVRQAPGKGLEWVSYISSGSTSFYYADTVKGRFTISRDNAKNSLYLQMNSLRDEDTAVYYCARTNSLLRGFFDAWGQGTTVTVSS
VL: DIVLTQTPLSLSVTPGQPASISCRASQSVSSSSYTYLHWYLQKPGQPPQLLIKSASNLESGVPDRFSGSGSGTDFTLKISRVEAEDVGVYYCQHSWEIPLTFGQGTKLEIK
modifications: MC-MMAF on cysteines reduced with TCEP (sites not given), DAR 3.0-5.0 per antibody
B2: Chimeric antibody 12B12 (antibody, V domains shown)
VH: DVQLVESGGGLVQPGGSRKLSCAASGFTFSNFGMHWVRQAPEKGLEWVAYISSGSTSFYYADTVKGRFTISRDNPKNTLFLQMTSLRSEDTAMYYCSRTNSLLRGFFDAWGAGTTVTVSS
VL: DIVLTQSPASLAVSLGQRATISCRASQSVSSSSYTYLHWYQQKPGQPPKLLIKSASNLESGVPARFSGTGSGTDFTLNIHPVEEEDTATYYCQHSWEIPLTFGAGTKLELK
notes: Mouse variable domains on human IgG1 heavy and human kappa light constant regions; also called c12B12; TPBG chimeric antibody 12B12
B3: Humanized antibody 12B12-12 (antibody, V domains shown)
VH: B1 VH
VL: B1 VL
notes: also called h12B12-12
B4: Humanized antibody 12B12-15 (antibody, V domains shown)
VH: B1 VH with L11V, G16R, S49A, A75S, S78T, D88A
VL: B1 VL
notes: also called h12B12-15
B5: Humanized antibody 28D4-3 (antibody, V domains shown)
VH: EVQLVESGGGLVKPGGSLRLSCAASGFTFSNYVMSWIRQAPGKGLEWVAEISTGGSHTYYSDTVTGRFTISRDNAKKSLYLQMNSLRAEDTAVYYCIMFYYGSSYSMDYWGQGTTVTVSS
VL: DIQMTQSPSSLSASVGDRVTITCRASQDIRNYLNWYQQKPGKAPKLLIYHTSRLHSGVPSRFSGSGSGTDFTFTISSLQPEDIATYYCQQGDTLPLTFGQGTRLEIK
notes: also called h28D4-3
B6: Humanized antibody 28D4-4 (antibody, V domains shown)
VH: B5 VH with I37A, G44R
VL: B5 VL
notes: also called h28D4-4
B7: Humanized antibody 28D4-7 (antibody, V domains shown)
VH: B5 VH
VL: B5 VL with F71Y
notes: also called h28D4-7
B8: Chimeric Antibody 12B12-MMAF (antibody, V domains shown)
VH: B2 VH
VL: B2 VL
modifications: MC-MMAF on cysteines reduced with TCEP (sites not given), DAR 3.0-5.0 per antibody
B9: Humanized Antibody 12B12-15-MMAF (antibody, V domains shown)
VH: B1 VH with L11V, G16R, S49A, A75S, S78T, D88A
VL: B1 VL
modifications: MC-MMAF on cysteines reduced with TCEP (sites not given), DAR 3.0-5.0 per antibody

target: T1, human TPBG protein, full-length, on the …; assay: cell-based or functional assay

Binder | IC50 of cell killing, MDA-MB-468 cells (CellTiter-Glo, 5 days) | IC50 of cell killing, NCI-H1568 cells (CellTiter-Glo, 5 days) | IC50 of cell killing, NCI-H1975 cells (CellTiter-Glo, 5 days)
B1 | 0.06 nM | 0.05 nM | 0.13 nM

target: T2, human TPBG antigen immobilized on a CM5 …; assay: SPR (Biacore), human TPBG antigen immobilized on CM5 chip
Protocol: To assess the binding specificity and affinity of the humanized anti-TPBG antibody, Biacore analysis was performed using human TPBG antigen immobilized on a CM5 chip. Biacore technique utilizes the change in the refractive index of surface layer after antibody binding to the TPBG antigen immobilized on the surface layer. The binding was determined by surface plasmon resonance (SPR) through detecting the laser refracted from the surface. Non-specific and specific interactions were distinguished by analysis of signal kinetics binding rate and dissociation rate. Chimeric antibodies 12B12 and 28D4 were used as controls.

Kd | koff | kon | Binder
0.0102 nM | 1.64e-05 s⁻¹ | 1.61e+06 M⁻¹ s⁻¹ | B2
0.0186 nM | 2.29e-05 s⁻¹ | 1.23e+06 M⁻¹ s⁻¹ | B3
< 0.00566 nM | < 1e-05 s⁻¹ | 1.77e+06 M⁻¹ s⁻¹ | B4
0.0406 nM | 4.57e-05 s⁻¹ | 1.12e+06 M⁻¹ s⁻¹ | B5
0.0231 nM | 3.58e-05 s⁻¹ | 1.55e+06 M⁻¹ s⁻¹ | B6
0.0256 nM | 9.42e-05 s⁻¹ | 3.68e+06 M⁻¹ s⁻¹ | B7

target: T3, mouse TPBG protein, full-length, on the …; assay: FACS on CHO-k1 cells with surface-expressed mouse TPBG, fluorescent secondary antibody, mean fluorescence intensity

binding result | Binder
no binding (tested: 100 nM) | B2
no binding (tested: 100 nM) | B3
no binding (tested: 100 nM) | B4

target: T4, cynomolgus TPBG protein, full-length, …; assay: FACS on CHOK1-cTPBG cells

EC50 | Binder
0.62 nM | B5
0.72 nM | B6
0.27 nM | B7

target: T5, human TPBG-hFc protein; assay: ELISA, coated human TPBG-hFc
Protocol: The purified human TPBG-hFc obtained from step (1) diluting with PBS to a final concentration of 1.0 μg/mL was aliquoted into a 96-well ELISA plate at 100 μL per well, and sealed with a parafilm and incubated at 4° C. overnight. The plate was washed twice with plate washing buffer (PBS containing 0.01% (v/v) Tween 20), and blocked with blocking buffer (PBS containing 0.01% (v/v) Tween 20 and 1% (w/w) BSA) at room temperature for 2 h. The blocking buffer was discarded, and […] per well of the purified antibody TPBG was added. After incubating at 37° C. for 2 h, the plate was washed for three times with plate washing buffer (PBS containing 0.01% (v/v) Tween 20). HRP (horseradish peroxidase)-labeled secondary antibody (purchased from Sigma) was added and incubated at 37° C. for 2 h, and the plate was washed for three times using plate washing buffer (PBS containing 0.01% (v/v) Tween 20). 100 μL of TMB substrate was aliquoted into each well, incubated at room temperature for 30 min, and 100 μL of stop buffer (1.0 N HCl) per well was subsequently added. A_{450 nm} values were read using the ELISA plate reader (SpectraMax 384plus purchased from Molecular Device), and the results were shown in Table 5. […] In Table 5 the IgG control herein is a mice IgG control, the data in the Table are OD_{450 nm} values, and Blank represents the OD_{450 nm} value of PBS buffer in the plate.
The purified humanized TPBG antibody obtained from Embodiment 1 was reacted with human TPBG-hFc, for the method, see (5) Identification of lead antibody in Embodiment 1. The EC50 in Table 11 and Table 12 are calculated according to the OD450 nm value of the h12B12 variants and the h28D4 variants, respectively. […] FIGS. 7A and 7B are the binding reactions of purified humanized h12B12 variants to human TBPG-hFc protein, and FIGS. 8A and 8B are the binding reactions of the purified humanized h28D4 variants to human TBPG-hFc protein.

EC50 | Binder
0.137 nM | B2
0.206 nM | B3
0.193 nM | B4
0.16 nM | B5
0.147 nM | B6
0.161 nM | B7

target: T1, human TPBG protein, full-length, on the …; assay: FACS on CHOK1-hTPBG cells

EC50 | Binder
0.33 nM | B2
0.33 nM | B3
0.37 nM | B4

target: T1, human TPBG protein, full-length, on the …; assay: cell-based or functional assay; remark: another data set of the same source

Binder | IC50 of cell killing, NCI-H1568 cells (CellTiter-Glo, 5 days)
B8 | 0.063 nM
B1 | 0.066 nM
B9 | 0.058 nM

target: T1, human TPBG protein, full-length, on the …; assay: FACS on CHOK1-hTPBG cells; remark: another data set of the same source

EC50 | Binder
0.26 nM | B5
0.38 nM | B6
0.37 nM | B7

target: T4, cynomolgus TPBG protein, full-length, …; assay: FACS on CHOK1-cTPBG cells; remark: another data set of the same source

EC50 | Binder
0.67 nM | B2
10.3 nM | B3
0.87 nM | B4

target: T3, mouse TPBG protein, full-length, on the …; assay: FACS on CHO-k1 cells with surface-expressed mouse TPBG, fluorescent secondary antibody, mean fluorescence intensity; remark: another data set of the same source

binding result | Binder
no binding (tested: 100 nM) | B5
no binding (tested: 100 nM) | B6
no binding (tested: 100 nM) | B7
